Assay results as given in patent US20240192215A1.

Tests used:
[1] = molecular target: Full-length mouse IgG; test: microarray control spot; secondary antibody after B264 1 ug/mL
[2] = molecular target: Human_IgG; test: as above
[3] = molecular target: Full-length mouse IgG; test: microarray control spot; secondary antibody after B266-1, head 0.08 ug (text 0.008 ug/mL)
[4] = molecular target: Human_IgG; test: as above
[5] = molecular target: Full-length mouse IgG; test: microarray control spot; secondary antibody after B266-1 0.0016 ug/mL
[6] = molecular target: Human_IgG; test: as above
[7] = molecular target: Full-length mouse IgG; test: microarray control spot; secondary antibody after B266-1 0.2 ug/mL
[8] = molecular target: Human_IgG; test: as above
[9] = molecular target: Full-length mouse IgG; test: microarray control spot; secondary antibody after B266-1 0.04 ug/mL
[10] = molecular target: Human_IgG; test: as above
[11] = molecular target: Full-length mouse IgG; test: microarray control spot; secondary antibody after B266-1 1 ug/mL
[12] = molecular target: Human_IgG; test: as above
[13] = molecular target: Full-length mouse IgG; test: microarray control spot; secondary antibody after B264 0.0016 ug/mL
[14] = molecular target: Human_IgG; test: as above
[15] = molecular target: Full-length mouse IgG; test: microarray control spot; secondary antibody after B264 0.2 ug/mL
[16] = molecular target: Human_IgG; test: as above
[17] = molecular target: Full-length mouse IgG; test: microarray control spot; secondary antibody after B264, head 0.08 ug (text 0.008 ug/mL)
[18] = molecular target: Human_IgG; test: as above
[19] = molecular target: T1, Peptide_097 (human); test: peptide microarray, secondary antibody only
T1 sequence (peptide): FKKGQKVGEFSGANK

[20] = molecular target: T2, Peptide_051 (human); test: peptide microarray, secondary antibody only
T2 sequence (peptide): PCKMIKPFFHSLSEK

[21] = molecular target: T3, Peptide_092 (human); test: peptide microarray, secondary antibody only
T3 sequence (peptide): PTFQFFKKGQKVGEF

[22] = molecular target: T4, Peptide_096 (human); test: peptide microarray, secondary antibody only
T4 sequence (peptide): FFKKGQKVGEFSGAN

[23] = molecular target: T5, Peptide_044 (human); test: peptide microarray, secondary antibody only
T5 sequence (peptide): FSATWCGPCKMIKPF

[24] = molecular target: Full-length mouse IgG; test: microarray control spot; secondary antibody after B264 0.04 ug/mL
[25] = molecular target: Human_IgG; test: as above
[26] = molecular target: Full-length mouse IgG; test: microarray control spot; secondary antibody after B264 5 ug/mL
[27] = molecular target: Human_IgG; test: as above
[28] = molecular target: Full-length mouse IgG; test: microarray control spot; secondary antibody after B266-1 5 ug/mL
[29] = molecular target: Human_IgG; test: as above
[30] = molecular target: Full-length mouse IgG; test: microarray control spot; secondary antibody only
[31] = molecular target: Human_IgG; test: microarray control spot; secondary antibody only

fluorescence-labeled secondary anti-mouse-IgG antibody (anti-mouse IgG(H+L) (Thermo 84545))
signal (blank-control = 1) [1]: 24.5 | signal (blank-control = 1) [2]: 20.8 | signal (blank-control = 1) [3]: 74.6 | signal (blank-control = 1) [4]: 47.9 | signal (blank-control = 1) [5]: 84.8 | signal (blank-control = 1) [6]: 35.4 | signal (blank-control = 1) [7]: 71.4 | signal (blank-control = 1) [8]: 49.6 | signal (blank-control = 1) [9]: 79.7 | signal (blank-control = 1) [10]: 49.7 | signal (blank-control = 1) [11]: 65.4 | signal (blank-control = 1) [12]: 52.8 | signal (blank-control = 1) [13]: 74.5 | signal (blank-control = 1) [14]: 45.7 | signal (blank-control = 1) [15]: 46 | signal (blank-control = 1) [16]: 36.3 | signal (blank-control = 1) [17]: 76.3 | signal (blank-control = 1) [18]: 52.6 | signal (blank-control = 1) [19]: 1.34 | signal (blank-control = 1) [20]: 0.47 | signal (blank-control = 1) [21]: 2.28 | signal (blank-control = 1) [22]: 1.18 | signal (blank-control = 1) [23]: 1.73 | signal (blank-control = 1) [24]: 69.5 | signal (blank-control = 1) [25]: 48.1 | signal (blank-control = 1) [26]: 7.16 | signal (blank-control = 1) [27]: 6.7 | signal (blank-control = 1) [28]: 47 | signal (blank-control = 1) [29]: 35.8 | signal (blank-control = 1) [30]: 54.6 | signal (blank-control = 1) [31]: 46.6
